Source: patent US8802376B2, “Methods for identifying candidate cytotoxic antibody molecules” (Agency for Science, Technology and Research, priority 2010, dated 2014)

How the values were obtained:
[1] = tested on: human embryonic stem cells (hESC); test: inhibition of mAb84 binding to hESC by soluble trisaccharide; format: cell-based; conditions: trisaccharide 0.4 mM, 0.8 mM, 2 mM, 4 mM; mAb84 (25 pM, 5 μg) in 200 μl, 2×10^5 hESC
Protocol: (§1) The importance of the trisaccharide Fucα1-2Galβ1-3GlcNA in mediating the cytotoxic interaction of mAb84 on human embryonic stem cells (hESC) was investigated by assessing the ability of synthetic soluble trisaccharide Fucα1-2Galβ1-3GlcNA to (i) inhibit the binding of mAb84 to hESC and (ii) reduce the cytotoxic effect of mAb84 on hESC.
(§2) mAb84 (25 pM, 5 μg) in 200 μl volume was added to 2×10^5 hESC and preincubated for 15 minutes prior to addition of synthetic soluble trisaccharide Fucα1-2Galβ1-3GlcN (in concentrations of 0 (control), 0.4 mM, 0.8 mM, 2 mM, 4 mM).

[2] = tested on: human embryonic stem cells (hESC); test: relative viability of hESC in response to mAb84 with added trisaccharide; format: cell-based
Protocol: as §1, §2

[3] = biological target: T1, PODXL from hESC (HES-3) (Homo sapiens, UniProt O00592); test: Western blot of PODXL from hESC probed with antibodies; format: binding; conditions: SDS-PAGE
T1 construct: mAb 84 only detected hESC—PODXL but not expressed PODXL; endogenous in cells; host or cells: hESC (HES-3)
T1 sequence (O00592 23-558): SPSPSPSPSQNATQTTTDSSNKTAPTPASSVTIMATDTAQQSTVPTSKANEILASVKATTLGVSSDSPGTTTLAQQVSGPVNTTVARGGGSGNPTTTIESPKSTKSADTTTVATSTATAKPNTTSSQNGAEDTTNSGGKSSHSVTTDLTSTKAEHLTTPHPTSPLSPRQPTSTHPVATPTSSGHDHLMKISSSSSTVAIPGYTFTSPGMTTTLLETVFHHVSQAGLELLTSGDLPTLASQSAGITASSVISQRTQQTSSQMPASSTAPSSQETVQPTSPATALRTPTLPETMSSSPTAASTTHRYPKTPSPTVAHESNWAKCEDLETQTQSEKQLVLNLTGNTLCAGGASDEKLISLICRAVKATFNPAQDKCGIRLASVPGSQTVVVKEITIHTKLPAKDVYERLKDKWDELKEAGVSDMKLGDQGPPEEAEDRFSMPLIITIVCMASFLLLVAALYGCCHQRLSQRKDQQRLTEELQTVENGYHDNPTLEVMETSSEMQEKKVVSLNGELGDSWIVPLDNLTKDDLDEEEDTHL
Description: (§3) The gene encoding PODXL was isolated and sequenced from hESC. The gene was cloned into vectors and expressed either unglycosylated (in vitro TnT) or in mammalian cells (HEK or COS cells which are capable of glycosylating the expressed protein).
(§4) The proteins obtained were then resolved on SDS-PAGE, Western blotted and probed with antibodies. The antibodies used were commercially available anti-PODXL antibodies (monoclonal and polyclonal) and mAb 84. […] For COS and HEK expressed PODXL, only monoclonal anti-PODXL detected both the expressed PODXL and PODXL from hESC.
In either COS or HEK cells, PODXL is glycosylated (and so has a higher MW). However the band is lower than PODXL expressed in hESC (HES-3). Also, mAb 84 only detected hESC—PODXL but not expressed PODXL. This led to the conclusion that there is a stem cell-specific modification (glycosylation) to PODXL. Without being bound by theory, it appears that when PODXL is glycosylated by stem cells the resulting glycan structure is different that of PODXL glycosylated by other cells.

[4] = tested on: FGF2-starved hESC; test: mAb 84-mediated killing on FGF2-starved hESC; format: cell-based, human
[5] = tested on: IPSCs; conditions: WO/2010/033084; cited from earlier work
[6] = Printed Glycan Array V4.1 (Consortium for Functional Glycomics) binding
Protocol: Buffers: • TSM=20 mM Tris-HCl, pH 7.4 150 mM NaCl, 2 mM CaCl2, 2 mM MgCl2 • TSM Wash Buffer (TSMW)=TSM Buffer+0.05% Tween-20 • TSM Binding Buffer (TSMBB)=TSM buffer+0.05% Tween 20+1% BSA
Protocol: • 1. Make working stocks of washing buffers (TSM, TSM Wash Buffer, and H2O) or collect reagents and bring to room temperature if they have been in the refrigerator. • 1.1. Buffer (A) TSM-20 mM Tris-HCl, pH 7.4 150 mM NaCl, 2 mM CaCl2, 2 mM MgCl2 • 1.2. Buffer (B) TSM Wash Buffer (TSMW)—TSM Buffer+0.05% Tween-20 • 1.3. Buffer (C) TSM Binding Buffer (TSMBB)—TSM buffer+0.05% Tween 20+1% BSA • 1.4. dH20 • 2. Prepare 100 μl of sample by diluting antibody in TSMBB or appropriate Binding Buffer based on properties of Antibody to a final concentration of 5-50 μg/ml or an appropriate concentration required for the analysis. • mAb84 antibodies were added at a concentration of 50 μg/ml. • mAb85 antibodies were added at a concentration of 50 μg/ml. • 3. Remove slide(s) from dessicator and label slide with sample name near barcode, outside of the black marks. • 4. […]
mAb84 antibodies were contacted with the glycans. […] Bound antibodies were detected using AlexaFluor-488-labeled secondary antibodies as described above. The secondary antibodies were then detected using a fluorescence scanner. Binding is presented in relative fluorescence units (RFU). […]

[7] = tested on: day 22 EB; test: mAb 84-mediated killing on day 22 EB; format: cell-based, human
[8] = tested on: undifferentiated human embryonic stem cells (hESC); conditions: cited from earlier work
[9] = biological target: T2, unglycosylated PODXL (in vitro transcription and translation (TnT)) (Homo sapiens, UniProt O00592); test: Western blot of in vitro TnT-expressed PODXL probed with antibodies; format: binding; conditions: SDS-PAGE
T2 construct: made in house; host or cells: in vitro transcription and translation (cell-free)
T2 sequence (O00592 23-558): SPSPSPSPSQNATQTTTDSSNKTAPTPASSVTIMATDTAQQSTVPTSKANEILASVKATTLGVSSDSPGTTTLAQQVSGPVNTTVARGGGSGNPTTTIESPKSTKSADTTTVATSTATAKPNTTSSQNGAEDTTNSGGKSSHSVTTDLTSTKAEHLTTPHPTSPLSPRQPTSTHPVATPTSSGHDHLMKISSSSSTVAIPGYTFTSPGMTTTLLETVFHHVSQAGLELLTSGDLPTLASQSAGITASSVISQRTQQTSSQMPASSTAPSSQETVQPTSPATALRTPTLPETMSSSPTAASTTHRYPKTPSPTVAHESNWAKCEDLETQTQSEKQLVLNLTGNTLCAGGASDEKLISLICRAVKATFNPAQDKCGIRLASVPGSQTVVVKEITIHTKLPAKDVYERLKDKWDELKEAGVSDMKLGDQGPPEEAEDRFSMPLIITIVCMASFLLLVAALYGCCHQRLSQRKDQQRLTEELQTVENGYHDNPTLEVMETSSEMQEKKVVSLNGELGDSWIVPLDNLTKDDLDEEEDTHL
Description: as §3, §4

[10] = tested on: day 8 embyroid bodies; test: mAb 84 binding reactivity to embryoid bodies; format: cell-based, human
[11] = tested on: hESC; conditions: hESC treated with mAb 84 prior to transplantation into SCID mice; cited from earlier work
[12] = biological target: T3, PODXL on the surface of hESCs (Homo sapiens, UniProt O00592); test: kinetics of mAb84 binding to PODXL on the surface of hESCs
T3 construct: mAb 84 only detected hESC—PODXL but not expressed PODXL; endogenous in cells; host or cells: hESC (HES-3)
T3 sequence (O00592 23-558): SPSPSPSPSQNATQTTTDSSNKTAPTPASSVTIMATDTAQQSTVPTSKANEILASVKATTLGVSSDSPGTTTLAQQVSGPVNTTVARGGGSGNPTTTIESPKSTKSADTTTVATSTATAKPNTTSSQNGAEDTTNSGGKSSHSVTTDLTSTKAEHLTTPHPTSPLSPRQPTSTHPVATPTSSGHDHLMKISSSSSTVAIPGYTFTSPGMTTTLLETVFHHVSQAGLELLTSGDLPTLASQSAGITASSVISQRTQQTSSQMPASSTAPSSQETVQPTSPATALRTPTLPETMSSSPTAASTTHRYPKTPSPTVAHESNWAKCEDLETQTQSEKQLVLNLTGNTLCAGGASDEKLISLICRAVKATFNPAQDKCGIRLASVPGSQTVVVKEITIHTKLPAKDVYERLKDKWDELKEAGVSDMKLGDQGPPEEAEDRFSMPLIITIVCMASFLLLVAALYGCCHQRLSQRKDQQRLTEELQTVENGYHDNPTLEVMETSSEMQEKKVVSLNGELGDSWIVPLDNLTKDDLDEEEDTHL

[13] = biological target: T4, PODXL over-expressed in HEK and COS cells (Homo sapiens, UniProt O00592); test: Western blot of COS and HEK expressed PODXL probed with antibodies; format: binding; conditions: SDS-PAGE
T4 construct: expressed in transfected cells; host or cells: HEK or COS cells
T4 sequence (O00592 23-558): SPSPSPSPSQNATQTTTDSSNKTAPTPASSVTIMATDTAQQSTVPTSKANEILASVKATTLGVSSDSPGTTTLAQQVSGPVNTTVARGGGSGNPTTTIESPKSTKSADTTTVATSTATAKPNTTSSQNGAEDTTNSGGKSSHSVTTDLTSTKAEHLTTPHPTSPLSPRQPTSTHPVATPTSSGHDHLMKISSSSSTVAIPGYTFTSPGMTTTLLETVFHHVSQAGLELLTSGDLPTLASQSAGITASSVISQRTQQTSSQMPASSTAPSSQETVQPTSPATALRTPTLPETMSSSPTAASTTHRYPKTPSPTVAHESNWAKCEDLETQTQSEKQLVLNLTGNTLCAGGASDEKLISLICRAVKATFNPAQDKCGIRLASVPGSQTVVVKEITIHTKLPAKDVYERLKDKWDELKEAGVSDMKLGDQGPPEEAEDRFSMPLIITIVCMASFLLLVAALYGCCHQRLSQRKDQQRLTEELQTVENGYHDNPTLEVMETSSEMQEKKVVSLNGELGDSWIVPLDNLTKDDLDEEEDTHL
Description: as §3, §4

CC(=O)N[C@H]1C(O)O[C@H](CO)[C@@H](O)[C@@H]1O[C@@H]1O[C@H](CO)[C@H](O)[C@H](O)[C@H]1O[C@@H]1O[C@@H](C)[C@@H](O)[C@@H](O)[C@@H]1O (stereo partly shown) [Fucα1-2Galβ1-3GlcNAc]
inhibition of mAb84 binding to hESC [1]: dose dependently inhibit | cytotoxic effect of mAb84 on hESC (relative viability) ([2]; increasing concentrations of trisaccharide 0.4 mM, 0.8 mM, 2 mM, 4 mM): reduction | cytotoxic effect of mAb84 on hESC (relative viability) ([2]; trisaccharide 2 mM): abolished | cytotoxic effect of mAb84 on hESC (relative viability) ([2]; trisaccharide 4 mM): abolished

B1: mAb84: IgM monoclonal antibody which specifically binds and kills undifferentiated human embryonic stem cells; antigen is PODXL (antibody, V domains shown)
VH: QVQLQQSGGGLVQPGGSMKLSCVASGFTFSNYWMNWVRQSPEKGLEWVAEIRLKSNNYATHYAESVKGRFTISRDDSKSSVYLQMNNLRAEDTGIYYCTGERAWGQGTTVTVSS
VL: DIELTQSPAIMSASPGEKVTMTCSASSSVNYMYWYQQKPGSSPRLLIYDTSNLASGVPVRFSGSGSGTSYSLTISRMEAEDAATYYCQQWSSYPYTFGGGTKLEIKR
modifications: Synthetic sequenceVH chain of mAb 84; Synthetic sequence VL chain of mAb 84
notes: antigen is PODXL
detection of PODXL from hESC [3]: detected | mAb 84-mediated killing [4]: decrease | cytotoxicity against IPSCs [5]: cytotoxic | relative binding (binding of mAb84 divided by binding of mAb85 to the same glycans) ([6]; 9 glycans containing Fucα1-2Galβ1-3GlcNAc, RFU values): at least 37 times | binding to glycans in the glycan array ([6]; 465 glycans, V4.1 array, Alexa488 labeled secondary antibody): selectively bind | mAb 84-mediated killing [7]: loss | cytotoxicity against undifferentiated hESCs ([8]; WO 2007/102787): cytotoxic | incubation time to cell death of undifferentiated hESC ([8]; undifferentiated hESC): ≤ 30 min | detection of unglycosylated PODXL [9]: did not detect | detection of unglycosylated PODXL ([9]; listed as mAb 84): does not bind | binding reactivity compared to undifferentiated hESC [10]: reduced | tumour formation [11]: absence of tumour formation | koff [12]: 0.0029 s⁻¹ | kon [12]: 7.1 e4 M^−1 s^−1 | detection of expressed (glycosylated) PODXL [13]: does not bind
